Experimental data from US20140348840A1 (Memorial Sloan Kettering, published 2014).

B1: Flag-AE-ΔNHR2 (other)
chain: MRIPVDASTSRRFTPPSTALSPGKMSEALPLGAPDAGAALAGKLRSGDRSMVEVLADHPGELVRTDSPNFLCSVLPTHWRCNKTLPIAFKVVALGDVPDGTLVTVMAGNDENYSAELRNATAAMKNQVARFNDLRFVGRSGRGKSFTLTITVFTNPPQVATYHRAIKITVDGPREPRNRTEKHSTMPDSPVDVKTQSRLTPPTMPPPPTTQGAPRTSSFTPTTLTNGTSHSPTALNGAPSPPNGFSNGPSSSSSSSLANQQLPPACGARQLSKLKRFLTTLQQFGNDISPEIGERVRTLVLGLVNSTLTIEEFHSKLQEATNFPLRPFVIPFLKANLPLLQRELLHCARLAKQNPAQYLAQHEQLLLDASTTSPVDSSELLLDVNENGKRRTPDRTKENGFDREPLHSEHPSKRPCTISPGQRYSPNNGLSYQPNGLPHPTPPPPQHYRLDDMAIAHHYRDSYRHPSHRDLRDRNRPMGLEDLKKGGGSSSSHSRQQSPVNPDPVALDAHREFLHRPASGYVPEEIWKKAEEAVNEVKRQAMTELQKAVSEAERKAHDMITTERAKMERTVAEAKRQAAEDALAVINQQEDSSESCWNCGRKASETCSGCNTARYCGSFCQHKDWEKHHHICGQTLQAQQQGDTPAVSSSVTPNSGAGSPMDTPPAATPRSTTPGTPSTIETTPR
notes: AML1-ETO lacking amino acids 481 to 547 (the NHR2 domain); also called AML1-ETO ΔNHR2; not shown: Flag tag at the N-terminus
B2: Flag-AE-ΔNHR1 (aa245-436) (other)
chain: MRIPVDASTSRRFTPPSTALSPGKMSEALPLGAPDAGAALAGKLRSGDRSMVEVLADHPGELVRTDSPNFLCSVLPTHWRCNKTLPIAFKVVALGDVPDGTLVTVMAGNDENYSAELRNATAAMKNQVARFNDLRFVGRSGRGKSFTLTITVFTNPPQVATYHRAIKITVDGPREPRNRTEKHSTMPDSPVDVKTQSRLTPPTMPPPPTTQGAPRTSSFTPTTLTNGTSHSPTALNGAPSPPNGFSHRDLRDRNRPMGLHGTRQEEMIDHRLTDREWAEEWKHLDHLLNCIMDMVEKTRRSLTVLRRCQEADREELNYWIRRYSDAEDLKKGGGSSSSHSRQQSPVNPDPVALDAHREFLHRPASGYVPEEIWKKAEEAVNEVKRQAMTELQKAVSEAERKAHDMITTERAKMERTVAEAKRQAAEDALAVINQQEDSSESCWNCGRKASETCSGCNTARYCGSFCQHKDWEKHHHICGQTLQAQQQGDTPAVSSSVTPNSGAGSPMDTPPAATPRSTTPGTPSTIETTPR
notes: also called AML1-ETO ΔNHR1; not shown: Flag tag at the N-terminus
B3: HA-AML1-ETO9a (other)
chain: MRIPVDASTSRRFTPPSTALSPGKMSEALPLGAPDAGAALAGKLRSGDRSMVEVLADHPGELVRTDSPNFLCSVLPTHWRCNKTLPIAFKVVALGDVPDGTLVTVMAGNDENYSAELRNATAAMKNQVARFNDLRFVGRSGRGKSFTLTITVFTNPPQVATYHRAIKITVDGPREPRNRTEKHSTMPDSPVDVKTQSRLTPPTMPPPPTTQGAPRTSSFTPTTLTNGTSHSPTALNGAPSPPNGFSNGPSSSSSSSLANQQLPPACGARQLSKLKRFLTTLQQFGNDISPEIGERVRTLVLGLVNSTLTIEEFHSKLQEATNFPLRPFVIPFLKANLPLLQRELLHCARLAKQNPAQYLAQHEQLLLDASTTSPVDSSELLLDVNENGKRRTPDRTKENGFDREPLHSEHPSKRPCTISPGQRYSPNNGLSYQPNGLPHPTPPPPQHYRLDDMAIAHHYRDSYRHPSHRDLRDRNRPMGLHGTRQEEMIDHRLTDREWAEEWKHLDHLLNCIMDMVEKTRRSLTVLRRCQEADREELNYWIRRYSDAEDLKKGGGSSSSHSRQQSPVNPDPVALD
notes: Alternatively spliced form of A-E with 575 amino acids, lacking NHR3 and NHR4; also called A-E9a; AE9a; not shown: HA tag (anti-HA antibody used for the IP)
B4: AML1-ETO fusion protein (other)
chain: MRIPVDASTSRRFTPPSTALSPGKMSEALPLGAPDAGAALAGKLRSGDRSMVEVLADHPGELVRTDSPNFLCSVLPTHWRCNKTLPIAFKVVALGDVPDGTLVTVMAGNDENYSAELRNATAAMKNQVARFNDLRFVGRSGRGKSFTLTITVFTNPPQVATYHRAIKITVDGPREPRNRTEKHSTMPDSPVDVKTQSRLTPPTMPPPPTTQGAPRTSSFTPTTLTNGTSHSPTALNGAPSPPNGFSNGPSSSSSSSLANQQLPPACGARQLSKLKRFLTTLQQFGNDISPEIGERVRTLVLGLVNSTLTIEEFHSKLQEATNFPLRPFVIPFLKANLPLLQRELLHCARLAKQNPAQYLAQHEQLLLDASTTSPVDSSELLLDVNENGKRRTPDRTKENGFDREPLHSEHPSKRPCTISPGQRYSPNNGLSYQPNGLPHPTPPPPQHYRLDDMAIAHHYRDSYRHPSHRDLRDRNRPMGLHGTRQEEMIDHRLTDREWAEEWKHLDHLLNCIMDMVEKTRRSLTVLRRCQEADREELNYWIRRYSDAEDLKKGGGSSSSHSRQQSPVNPDPVALDAHREFLHRPASGYVPEEIWKKAEEAVNEVKRQAMTELQKAVSEAERKAHDMITTERAKMERTVAEAKRQAAEDALAVINQQEDSSESCWNCGRKASETCSGCNTARYCGSFCQHKDWEKHHHICGQTLQAQQQGDTPAVSSSVTPNSGAGSPMDTPPAATPRSTTPGTPSTIETTPR
notes: also called A-E; AE
B5: Flag-AE (Flag-tagged AML1-ETO) (other)
chain: MRIPVDASTSRRFTPPSTALSPGKMSEALPLGAPDAGAALAGKLRSGDRSMVEVLADHPGELVRTDSPNFLCSVLPTHWRCNKTLPIAFKVVALGDVPDGTLVTVMAGNDENYSAELRNATAAMKNQVARFNDLRFVGRSGRGKSFTLTITVFTNPPQVATYHRAIKITVDGPREPRNRTEKHSTMPDSPVDVKTQSRLTPPTMPPPPTTQGAPRTSSFTPTTLTNGTSHSPTALNGAPSPPNGFSNGPSSSSSSSLANQQLPPACGARQLSKLKRFLTTLQQFGNDISPEIGERVRTLVLGLVNSTLTIEEFHSKLQEATNFPLRPFVIPFLKANLPLLQRELLHCARLAKQNPAQYLAQHEQLLLDASTTSPVDSSELLLDVNENGKRRTPDRTKENGFDREPLHSEHPSKRPCTISPGQRYSPNNGLSYQPNGLPHPTPPPPQHYRLDDMAIAHHYRDSYRHPSHRDLRDRNRPMGLHGTRQEEMIDHRLTDREWAEEWKHLDHLLNCIMDMVEKTRRSLTVLRRCQEADREELNYWIRRYSDAEDLKKGGGSSSSHSRQQSPVNPDPVALDAHREFLHRPASGYVPEEIWKKAEEAVNEVKRQAMTELQKAVSEAERKAHDMITTERAKMERTVAEAKRQAAEDALAVINQQEDSSESCWNCGRKASETCSGCNTARYCGSFCQHKDWEKHHHICGQTLQAQQQGDTPAVSSSVTPNSGAGSPMDTPPAATPRSTTPGTPSTIETTPR
notes: Expressed in 293T cells with BosNeo-p300; anti-Flag IP; not shown: Flag tag added at the 5' end of the construct (N-terminus)
B6: Flag-ETO-ΔNHR1 (other, human, UniProt Q06455 1-604, looked up)
chain: MISVKRNTWRALSLVIGDCRKKGNFEYCQDRTEKHSTMPDSPVDVKTQSRLTPPTMPPPPTTQGAPRTSSFTPTTLTNGTSHSPTALNGAPSPPNGLPHPTPPPPQHYRLDDMAIAHHYRDSYRHPSHRDLRDRNRPMGLHGTRQEEMIDHRLTDREWAEEWKHLDHLLNCIMDMVEKTRRSLTVLRRCQEADREELNYWIRRYSDAEDLKKGGGSSSSHSRQQSPVNPDPVALDAHREFLHRPASGYVPEEIWKKAEEAVNEVKRQAMTELQKAVSEAERKAHDMITTERAKMERTVAEAKRQAAEDALAVINQQEDSSESCWNCGRKASETCSGCNTARYCGSFCQHKDWEKHHHICGQTLQAQQQGDTPAVSSSVTPNSGAGSPMDTPPAATPRSTTPGTPSTIETTPR
notes: not shown: Flag tag

Tests used:
p300 [1] = target: T1, p300 (UniProt Q09472 2-2414, limits assumed); assay: anti-Flag co-IP from 293T cells, Western blot for p300
T1 construct: The shRNAs used in Kasumi-1 cells are against human p300
T1 sequence (Q09472 2-2414 limits assumed): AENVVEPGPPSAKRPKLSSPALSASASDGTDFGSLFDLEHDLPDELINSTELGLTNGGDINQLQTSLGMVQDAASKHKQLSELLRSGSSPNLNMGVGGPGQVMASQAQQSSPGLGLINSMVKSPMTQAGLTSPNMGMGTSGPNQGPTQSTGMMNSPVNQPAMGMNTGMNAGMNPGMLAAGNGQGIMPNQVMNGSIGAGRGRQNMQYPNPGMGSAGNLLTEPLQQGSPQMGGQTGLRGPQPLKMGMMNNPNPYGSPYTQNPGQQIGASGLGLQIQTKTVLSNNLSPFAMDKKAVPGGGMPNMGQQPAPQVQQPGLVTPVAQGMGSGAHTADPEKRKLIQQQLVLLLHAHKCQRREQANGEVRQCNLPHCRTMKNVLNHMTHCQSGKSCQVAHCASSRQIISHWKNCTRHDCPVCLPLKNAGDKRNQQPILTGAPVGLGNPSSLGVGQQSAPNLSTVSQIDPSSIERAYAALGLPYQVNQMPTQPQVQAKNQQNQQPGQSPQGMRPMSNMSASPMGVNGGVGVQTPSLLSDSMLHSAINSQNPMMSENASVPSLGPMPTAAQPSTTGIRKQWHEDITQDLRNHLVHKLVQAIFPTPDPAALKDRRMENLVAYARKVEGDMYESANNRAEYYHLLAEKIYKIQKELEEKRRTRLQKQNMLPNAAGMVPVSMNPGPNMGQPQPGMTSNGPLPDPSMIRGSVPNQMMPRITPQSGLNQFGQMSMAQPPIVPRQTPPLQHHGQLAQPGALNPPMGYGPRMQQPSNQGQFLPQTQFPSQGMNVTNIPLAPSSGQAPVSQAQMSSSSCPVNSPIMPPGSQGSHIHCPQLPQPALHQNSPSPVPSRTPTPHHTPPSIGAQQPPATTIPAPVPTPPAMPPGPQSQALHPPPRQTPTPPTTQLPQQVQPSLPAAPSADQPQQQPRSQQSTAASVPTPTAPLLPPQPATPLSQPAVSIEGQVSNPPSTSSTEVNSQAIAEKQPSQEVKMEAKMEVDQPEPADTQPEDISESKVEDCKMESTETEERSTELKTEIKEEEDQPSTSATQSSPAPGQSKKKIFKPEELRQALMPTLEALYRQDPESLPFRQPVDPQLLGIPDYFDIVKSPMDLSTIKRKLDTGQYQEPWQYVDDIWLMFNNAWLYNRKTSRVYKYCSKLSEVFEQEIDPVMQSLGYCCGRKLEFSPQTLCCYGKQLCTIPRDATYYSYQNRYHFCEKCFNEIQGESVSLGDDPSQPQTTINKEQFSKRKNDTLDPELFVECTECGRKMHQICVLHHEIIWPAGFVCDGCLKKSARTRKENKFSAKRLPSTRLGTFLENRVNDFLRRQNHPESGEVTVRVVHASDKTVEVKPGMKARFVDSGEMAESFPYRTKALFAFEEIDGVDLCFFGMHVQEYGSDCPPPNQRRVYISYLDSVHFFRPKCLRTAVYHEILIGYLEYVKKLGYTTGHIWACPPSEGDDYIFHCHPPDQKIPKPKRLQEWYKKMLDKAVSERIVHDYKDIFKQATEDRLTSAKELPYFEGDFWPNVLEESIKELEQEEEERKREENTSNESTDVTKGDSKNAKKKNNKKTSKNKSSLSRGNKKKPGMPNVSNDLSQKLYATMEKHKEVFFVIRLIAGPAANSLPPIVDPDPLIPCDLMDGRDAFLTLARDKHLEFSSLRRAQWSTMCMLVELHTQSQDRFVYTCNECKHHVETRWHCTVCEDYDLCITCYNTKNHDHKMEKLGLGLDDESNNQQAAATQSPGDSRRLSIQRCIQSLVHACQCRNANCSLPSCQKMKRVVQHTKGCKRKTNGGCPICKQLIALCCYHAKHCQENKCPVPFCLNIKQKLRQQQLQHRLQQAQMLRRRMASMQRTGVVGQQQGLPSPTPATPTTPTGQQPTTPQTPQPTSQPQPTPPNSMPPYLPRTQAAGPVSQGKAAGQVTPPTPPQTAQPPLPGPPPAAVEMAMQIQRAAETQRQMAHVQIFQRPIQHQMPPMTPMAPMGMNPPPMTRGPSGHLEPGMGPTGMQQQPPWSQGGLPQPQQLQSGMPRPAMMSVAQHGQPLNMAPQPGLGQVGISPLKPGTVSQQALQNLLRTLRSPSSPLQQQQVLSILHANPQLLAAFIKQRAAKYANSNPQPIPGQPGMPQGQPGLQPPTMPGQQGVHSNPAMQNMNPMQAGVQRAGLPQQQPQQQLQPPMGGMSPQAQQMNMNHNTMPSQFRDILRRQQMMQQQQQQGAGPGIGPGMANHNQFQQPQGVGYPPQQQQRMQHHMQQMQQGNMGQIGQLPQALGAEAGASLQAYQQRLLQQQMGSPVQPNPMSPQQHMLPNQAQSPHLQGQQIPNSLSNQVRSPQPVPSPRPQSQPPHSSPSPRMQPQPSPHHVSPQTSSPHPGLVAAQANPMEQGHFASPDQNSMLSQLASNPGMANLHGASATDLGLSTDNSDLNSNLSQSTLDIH
Description: (§1) After 36 hours the cells were lysed in RIPA buffer with 1 mM DTT and DNAse I 1 μg/mL and a proteinase inhibitor cocktail (Roche), and incubated on ice for 30 minutes. Nuclear extracts were prepared to examine the endogenous protein-protein interactions. Anti-Flag agarose (Sigma), anti-HA agarose (Pierce) or protein A/G agarose (Santa Cruz) was used in the immunoprecipitation assays. For western blot assays, protein samples were separated by electrophoresis on denaturing 3-8% or 4-12% premade polyacrylamide gels (Invitrogen) and blotted to PVDF membranes (Millipore).

p300 [2] = target: T1, p300; assay: anti-HA co-IP, Western blot for p300
Description: as §1

p300 [3] = target: T1, p300; assay: in vitro binding assay with purified proteins

Row | binding result (p300 [1]) | also measured | Binder
1 | binds |  | B1
2 | no binding |  | B2
3 |  | binding result (p300 [2]): binds | B3
4 |  | binding result (p300 [3]): binds | B4
5 | binds |  | B5
6 | no binding |  | B6
